Results from the supplement of paper PMC9233669.
Variants at the floor of the assay were thinned out.

Tests used:
[1] = test system: biotinyl-Met-oxazolone; test: self-aminoacylation, catalytic enhancement (BMO) (fold over background); higher = more active; k-Seq, kA / k0A0; sequences stand for … in GGGAAUGGAUCCACAUCUACGAAUUC…UUCACUGCAGACUUGACGAAGCUG
Outline: (§1)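 Mutagenized RNA pools (0.43 μM; 21-nt variable region) were treated with 2–1250 μM of each biotinyl-aminoacyl-oxazolone. Conditions were 50 μL HEPES/NaCl/KCl/MgCl2/CaCl2 buffer, 5% acetonitrile, pH 6.9–7.0, room temperature, 90 minutes. Catalytic enhancement, the median kA relative to the uncatalyzed rate, was derived from streptavidin capture, qPCR and Illumina sequencing.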

[2] = test system: biotinyl-Val-oxazolone; test: self-aminoacylation, catalytic enhancement (BVO) (fold over background); higher = more active; k-Seq, kA / k0A0; sequences stand for … in GGGAAUGGAUCCACAUCUACGAAUUC…UUCACUGCAGACUUGACGAAGCUG
Outline: as §1

[3] = test system: biotinyl-Phe-oxazolone; test: self-aminoacylation, catalytic enhancement (BFO) (fold over background); higher = more active; k-Seq, kA / k0A0; sequences stand for … in GGGAAUGGAUCCACAUCUACGAAUUC…UUCACUGCAGACUUGACGAAGCUG
Outline: as §1

[4] = test system: biotinyl-Leu-oxazolone; test: self-aminoacylation, catalytic enhancement (BLO) (fold over background); higher = more active; k-Seq, kA / k0A0; sequences stand for … in GGGAAUGGAUCCACAUCUACGAAUUC…UUCACUGCAGACUUGACGAAGCUG
Outline: as §1

[5] = test system: biotinyl-Ile-oxazolone; test: self-aminoacylation, catalytic enhancement (BIO) (fold over background); higher = more active; k-Seq, kA / k0A0; sequences stand for … in GGGAAUGGAUCCACAUCUACGAAUUC…UUCACUGCAGACUUGACGAAGCUG
Outline: as §1

[6] = test system: biotinyl-Trp-oxazolone; test: self-aminoacylation, catalytic enhancement (BWO) (fold over background); higher = more active; k-Seq, kA / k0A0; sequences stand for … in GGGAAUGGAUCCACAUCUACGAAUUC…UUCACUGCAGACUUGACGAAGCUG
Outline: as §1

Row | Sequence | self-aminoacylation [1] | self-aminoacylation [2] | self-aminoacylation [3] | self-aminoacylation [4] | self-aminoacylation [5] | self-aminoacylation [6]
1 | AUUCACCCACGUCAUCGGGUG [Fam2.2 aminoacylation ribozyme variant] | 3.91 | 3.23 | 37.1 | 6.88 | 2.76 | 3.99
2 | AUUCACCCAGGUCAUCCGGUG [Fam2.2 aminoacylation ribozyme variant] | 8.64 | 6.29 | 90.7 | 12.7 | 6.38 | 8.51
3 | AUUCACCCAGGUCAUCGCGUG [Fam2.2 aminoacylation ribozyme variant] | 16 | 8.43 | 123 | 19.4 | 8.24 | 13
4 | AUUCACCCAGGUCAUCGGGUG [Fam2.2 aminoacylation ribozyme variant] | 4.83 | 3.53 | 34.2 | 5.86 | 3.26 | 4.53
5 | AUUCACCCAGGUCAUCGUGUG [Fam2.2 aminoacylation ribozyme variant] | 1.04 | 1.04 | 3.46 | 1.29 | 0.798 | 1.1
6 | AUUCACCCAGGUUAUCGGGUG [Fam2.2 aminoacylation ribozyme variant] | 4.79 | 3.33 | 35.3 | 4.62 | 2.77 | 4.83
7 | AUUCACCCUGGUCAUCGGGUG [Fam2.2 aminoacylation ribozyme variant] | 10.6 | 5.5 | 71 | 11.5 | 5.16 | 10.6
8 | AUUCACCGACGUCAUCGGGUG [Fam2.2 aminoacylation ribozyme variant] | 10.2 | 6.24 | 55.1 | 12.9 | 5.71 | 9.46
9 | AUUCACCGAGAUCAUCGGGUG [Fam2.2 aminoacylation ribozyme variant] | 6.77 | 4.27 | 49.8 | 8.53 | 3.88 | 7.09
10 | AUUCACCGAGGGCAUCGGGUG [Fam2.2 aminoacylation ribozyme variant] | 5.18 | 5.15 | 30.9 | 8.06 | 4.62 | 7.83
11 | AUUCACCGAUGUCAUCGGGUG [Fam2.2 aminoacylation ribozyme variant] | 8.67 | 4.63 | 62.7 | 10.8 | 5.59 | 7.35
12 | AUUCACCGGGGUCAUCGGGUG [Fam2.2 aminoacylation ribozyme variant] | 8.15 | 7.4 | 80.5 | 10.7 | 6.47 | 9.14
13 | AUUCACCGUGGUCAUCGGGUG [Fam2.2 aminoacylation ribozyme variant] | 9.04 | 6.1 | 59.5 | 9.19 | 5.23 | 8.84
14 | AUUCACCUAAGUCAUCGGUUG [Fam2.2 aminoacylation ribozyme variant] | 1.14 | 1.24 | 0.716 | 1.23 | 1.06 | 0.969
15 | AUUCACCUAAGUCGUCGGGUG [Fam2.2 aminoacylation ribozyme variant] | 2.18 | 1.87 | 10.1 | 2.55 | 1.88 | 2.02
16 | AUUCACCUACCUCAUCGGGUG [Fam2.2 aminoacylation ribozyme variant] | 2.69 | 2.33 | 22.3 | 4.3 | 2.21 | 2.79
17 | AUUCACCUACGACAUCGGGUG [Fam2.2 aminoacylation ribozyme variant] | 3.87 | 2.28 | 24 | 5.12 | 2.48 | 3.95
18 | AUUCACCUACGGCAUCGGGUG [Fam2.2 aminoacylation ribozyme variant] | 2.91 | 2.7 | 22.2 | 3.86 | 2.29 | 3.22
19 | AUUCACCUACGUCAGCGGGUG [Fam2.2 aminoacylation ribozyme variant] | 4.72 | 2.71 | 31.4 | 6.17 | 2.95 | 4.14
20 | AUUCACCUACGUCAUCCGGUG [Fam2.2 aminoacylation ribozyme variant] | 5.94 | 3.84 | 46.7 | 8.48 | 4.29 | 7.01
21 | AUUCACCUACGUCAUUGGGUG [Fam2.2 aminoacylation ribozyme variant] | 1.97 | 1.51 | 10.9 | 2.47 | 1.5 | 1.51
22 | AUUCACCUAGAGCAUCGGGUG [Fam2.2 aminoacylation ribozyme variant] | 2.34 | 2.06 | 12.4 | 2.43 | 1.76 | 1.64
23 | AUUCACCUAGAUCAACGGGUG [Fam2.2 aminoacylation ribozyme variant] | 4.52 | 2.49 | 25.3 | 5.41 | 2.73 | 4.38
24 | AUUCACCUAGAUCAUCCGGUG [Fam2.2 aminoacylation ribozyme variant] | 3.41 | 3.32 | 17.8 | 3.97 | 3.4 | 2.83
25 | AUUCACCUAGCACAUCGGGUG [Fam2.2 aminoacylation ribozyme variant] | 2.38 | 2.12 | 11.3 | 3.31 | 2.09 | 2.03
26 | AUUCACCUAGCUCACCGGGUG [Fam2.2 aminoacylation ribozyme variant] | 3.66 | 2.52 | 16.7 | 2.64 | 2.15 | 2.11
